In the domain aggregation screens of Martell et al. (2025):

Assay: soluble fraction after stress (log2 fold change); higher = more stays soluble; pooled small domains, quantitative proteomics
Conditions: stress: 50 degC
In short: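 Quantitative proteomics served as the high-throughput read-out for pooled custom libraries of small protein domains. Each was stressed at 50°C. Aggregation propensity is expressed as the base-two log fold change in soluble protein after stress. A higher value means a larger share of the protein remains in solution.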

Sequence	soluble fraction (log2)
HMDIEITIPPEAKELDVSKILISGNIITDEQEFLDYLKQNNVAAFKDGNYKLNKNMTTEEIVNQIK	0.498
HMNEDYSSMVGKTGFALTILRPAGKIMIEEEVFDAVAINGYISKGQEVEVVRYENAQLYVKVK	-0.386
HMRRRKPLVSYEYGTRVYAPSEGEPRYRVVATDADGQRVFAKFSSEEAARHRAREIEGRLATS	-0.00468
HMTSTEQEILIEHMVDRLPALRKKYGISQTELGEKIGLSRQTISAIERKTTPLTWTTMLAILMFFT	-1.7
HMGEYGVLWYLLTKKEAVSAGELKEKLHVVPGRMTDILTALEKKGLIIRQKNKTDKRVVDVVLTKEGEKEA	-0.471
HMGQKASEVEKIFVELQQQIIRGDLPPGYRLVESQIAAQFGVSRTPARLAIERLATAGLVAHETNRGATVH	-0.42
HMKEQLLLGFKVRSLRGIDLGFVKFIEGSAFQSFLKTDLTIIPNVPNYVKKIDNVKKIILVDWESD	-2.69
HMPAGWIPARIRLADYPQLRSLAWHVQGIDTLTPTEALDIYERNARHLDAQAMSAQEQDLLASLRLALS	-0.839
HMGAPAISYSKFLEQVDRKNVASVTIYKDGRIDGVMTSGSRFATESPSDPGLVGDLLKAGVEIRAKPP	0.126
HMTEAVYMPALQNKTLEEAQRIVEQYDLELEYTYEANAQVEEGRILSQTPQMGVLVERGEKVQAVVSLG	0.571
HMQSQIAQLYNPLLGYVKKRINSREDAEDLTQDIFLKLSKSNKDGVDNLKSWLYTIAKNTITDYYRKKKII	0.15
HMSKLQKTKYAGVYFTEDTQTRVKTYVARIVLAGIIDTEVVVGHSNDQHRTNAAIAYQRRLELIQEAKN	-3.86
HMLLTLPEDIITMVRQGTLSAGHARVLAGLESDEMKMTLARQTITNEWSVRQLENAVALMRKS	-0.0766
HMSIGPQMAGRRVLSGDLIARLEAFEGTVVLGRGVAREDALLIATQAGHVRWEPASRRLWVDSTA	-0.458
HMELSESLENYLVVIYEAHLRNEIARIKDMTASLSVKHTSAIDAIKKLEDLGIVNYEKRGFVKLTQSGIEK	0.0501
HMVFRFELQPSSATPLYRQIVEQVTRAVAAGVLRDGEELPSVRAVAQEYVINPMTVSKAYSLLEAQSI	-0.349
HMSVISVETAKSKALAHAGLTASKVTFIENKLEWDDGRQVYDIEFYTSDYKEYDYTIDAVSGQVLEFDY	-1.13
HMHGESISVPDLRGQKMERMPAFLADKHLQFKVIDSLFDLEKNPGTVLEQDPAPNSKVKEGRTIYLTVNAQ	-0.022
HMIERVLRTEEHIEAFAGEEVEAKLFAPIDGKKTLRGILGGIEDGRVILTVGDTEYRIEHAKISRLTTVFD	-0.122

Sequence	soluble fraction (log2)
HMLADEPTGALDSKTSVQIMALLTEIAQDRLVIMVTHNPELADEYATRIVNLRDGVISDDSDPFNP	-0.079
HMSDPSRKADFIAALSSLGGSAGNGKLREQLGWDEPTYDAVKQTLLDEGAITNGRGRGGSVALAG	≥ 0.62
HMTQRRLQSELDSIPGVGAGTRTKLLRTLGSVDAVLRASEAELLAAGANRRQVASIQAHAAAVER	-0.0642
HMYVPEVPVPDLLGRSEEEAKNLIEDLGLVFKVSKREYSKEYDEGHVMEQSVDEGAKVKENYPVEVVISR	0.196
HMDAIIVPSVLKMKPFEAEEKLSALGLRMKINDTVYIDNMKPGVIVEQSPTAEEDVKTDRVIYVIVNA	-0.404
HMSDGYETLVNMAKPFLNNSKQITENDITDAVNTVSVMLKKRYDMTDEDIRKAVSELLHFYA	-0.057
HMSFNTNENKNLLWELMNKHNLFKDIDNQHYQEVQKLFEEEIVFISNNNKSLDLVEQNKKFLSSIITKLNK	-1.41
HMNVAVSEADAKAAALERVSGATEADIRMELELDDGYYVYEGDIIYQQKEYEFEIDAQTGKFLKWSEER	-0.14
HMSKSKSEIDKDPHFWSSLFQRIGEGESLRKIAKDSKIPKSTLWAWIRNDPQLALRYSEAQQ	0.064
HMPNPALESARPAFEAFLSRFSDGEAMRGPAWGLWSLLHRKGNAPTASHAAGRDGMGVLAFLRHWQWG	-0.479
HMNSSTVDLAKEFLIDLLSSVEKMPASEVQEEAKNAGYSVASIRRAKDNLNIKPFKDGSAWYWKLPSIFK	-0.114
HMDMDRRALLLALINDRYHASVAEFARAINKAPAQVHQWLSGNRALGNAGARDIEIRLNLAQGYFDH	-1.91
HMNKPKIIINSVDDSVFSDYVKDSLSIAEVARSIGIDNNKINTSVYREIHKRIDSLKLDTSHFTGGAWN	-0.174
HMISAQEQALRNLKLSNGMTWKALAKALGITERSILSYVAAPGTKGYREMPAEVWHKLENISGH	0.165
HMFDENVKLIENEYDVSIISRGSELKVMGDVENVDKAARALRSMLAMINKGESLTEQNVRYVLTLVNEGNE	-0.527
HMLPKNITNTIDHWIQKFPQGKQRSAIIAALHAVQHHNKGFLTNDLLNQVADYIDVPKMNVYEVATFYSM	0.0843
HMGKKGPELNDNEKIIFNIISKENSMNLDDLKNRTELSNKQWDKAIKGLRSHELVNIEKIDDQLLIHL	0.196
HMESPSGGHRIALAFDQGTARAVDATYARLTGAGYEGRTKPWDAPWGQRYATVFDPDGNSVDLFAALE	-0.263
HMDEQKNREIALIENIQREDLNPYEKALGIRNLMDKYGLTQEEVSKRIGKSRSAVSNTVRILNLAPDVL	0.0391
